Data on one substance can be found in paper PMC9898208.

Assay in all cases: single-channel current recording
In assay [1] the target is OmpG^L3/L6-SA1.1 (E. coli) (UniProt P76045).
The target in a further assay is OmpG^L6-SA1.1 (E. coli) (UniProt P76045).
The target in assay [2] is OmpG^L3-FLAG/L6-SA1.1 (E. coli) (UniProt P76045).

Broadly, the Kd is the free concentration of one partner at which half of the binding sites on the other are occupied at equilibrium, for simple one-to-one binding. Low values mean tighter binding, high ones weaker binding. For orientation: koff means the rate constant with which the complex falls apart. A high value points to a short-lived complex. One may read the kon as a measure of how fast the partners come together. Higher therefore signals faster complex formation.

Chain of OmpG^L3-FLAG/L6-SA1.1 (E. coli) (P76045 22-301): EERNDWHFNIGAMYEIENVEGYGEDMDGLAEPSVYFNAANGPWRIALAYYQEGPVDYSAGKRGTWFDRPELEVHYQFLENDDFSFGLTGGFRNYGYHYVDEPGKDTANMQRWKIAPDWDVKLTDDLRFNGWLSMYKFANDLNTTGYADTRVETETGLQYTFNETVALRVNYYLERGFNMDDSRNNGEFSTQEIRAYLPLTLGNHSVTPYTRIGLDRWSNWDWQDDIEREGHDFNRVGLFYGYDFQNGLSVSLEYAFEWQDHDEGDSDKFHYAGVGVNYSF
Chain of OmpG^L6-SA1.1 (E. coli) (P76045 22-301): as above
Chain of OmpG^L3/L6-SA1.1 (E. coli) (P76045 22-301): as above
Chain of streptavidin (P22629 25-183): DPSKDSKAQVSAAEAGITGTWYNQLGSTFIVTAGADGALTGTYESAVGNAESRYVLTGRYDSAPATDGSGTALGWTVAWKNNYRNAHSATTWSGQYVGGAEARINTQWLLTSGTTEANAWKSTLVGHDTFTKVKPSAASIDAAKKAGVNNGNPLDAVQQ

With “streptavidin (from UniProt P22629 25-183) (natural protein)”, in assay [1], the dissociation constant (Kd) turned out to be 0.03 µM, the k'Off of the sub-events within a discrete binding event stood at 0.7 s⁻¹, the k'On 1 of the sub-events (rebinding) amounted to 3.9e+10 M⁻¹ s⁻¹ and the k'On 2 of the sub-events (rebinding) amounted to 4.4e+09 M⁻¹ s⁻¹. In assay [1], this substance yielded an off-rate constant (koff) of 0.01 s⁻¹, a kon of 326000 M⁻¹ s⁻¹, a tau'On 1 of the sub-events (rebinding) of 2.56 ms and a tau'On 2 of the sub-events (rebinding) of 22.9 ms. In addition, in the assay with OmpG^L6-SA1.1 (E. coli), the dissociation constant Kd came to 10.1 µM, the koff turned out to be 0.78 s⁻¹ and the on-rate constant (kon) is 77600 M⁻¹ s⁻¹. In addition, in assay [2], the Kd amounted to 7.51 µM, the dissociation rate constant (koff) is 0.55 s⁻¹ and the kon came to 72200 M⁻¹ s⁻¹.
